These are literature values, as cited in article PMC5989558.

In general, Kd refers to the free concentration of one partner at which half of the binding sites on the other are occupied at equilibrium, for simple one-to-one binding.

This data set concerns the target CD80 (Homo sapiens) (UniProt P33681).
UniProt P33681, sequence (P33681 35-242): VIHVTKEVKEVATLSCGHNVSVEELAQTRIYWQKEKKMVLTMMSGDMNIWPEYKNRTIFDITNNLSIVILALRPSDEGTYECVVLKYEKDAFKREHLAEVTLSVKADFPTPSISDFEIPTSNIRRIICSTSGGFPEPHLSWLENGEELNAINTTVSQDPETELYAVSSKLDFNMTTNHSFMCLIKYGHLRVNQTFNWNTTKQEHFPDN

For CD28 (from UniProt P10747), the Kd was 20 µM.
